Measurements reported in patent US9951373B2, “Oplophorus-derived luciferases, novel coelenterazine substrates, and methods of use” (Promega Corporation, priority 2010, dated 2018).

Key:
HEK293 cells = assay: Luminescence of OgLuc variants expressed in HEK293 cells; format: cell-based, human
Description: The PCR library in the pF4Ag-based non-fusion background was screened for additional variants with increased luminescence compared to 9B8 opt+K33N+170G (SEQ ID NOs: 68 and 69). Selected variants were then assayed in HEK293 and NIH3T3 cells. For each cell type, 15,000 cells were plated and grown overnight at 37° C. The next day, the cells were transfected as described in Example 25 with 10 ng pGL4.13 (Promega Corp.) as a transfection control and 100 ng of the OgLuc test DNA. The media was removed, and the cells were lysed with 100 μL of lysis buffer as described in Example 25 except the lysis buffer contained 100 mM MES pH 6.0 instead of HEPES, and luminescence measured using a GLOMAX® Luminometer.
Based on the above data, further combination variants were designed and generated (see Table 10) in the context of the pF4Ag-based non-fusion vector background without the 170G. The variants were analyzed in E. coli, HEK293 and NIH3T3 cells as described above and compared to 9B8 opt+K33N. The variants were also examined for luminescence with native coelenterazine.
The brightness of the variants expressed in HEK293 and NIH3T3 cells was measured as described previously. The luminescence of the variants was normalized to the luminescence generated by 9B8 opt (Table 27).

[1] = Enzyme kinetics of OgLuc variants in E. coli lysates; format: biochemical; conditions: PBI-3939, E. coli lysates
Description: Using methods known in the art, enzyme kinetic assays measuring luminescence were performed with the lysates of E. coli containing IV and the IV variants 15C1, 9B8, 9F6, and 9A3. […] Two fold serial dilutions of PBI-3939 in the assay buffer described previously in Example 26 were assayed with the diluted lysates. […] Variants 9B8 and 9F6 had higher Km values compared to IV while Km values for the other variants were unchanged.
Luminescence was measured on a TECAN® INFINITE® F500 luminometer.
The enzyme kinetics values were determined for the OgLuc variants as described previously, except luminescence was measured using a GLOMAX® luminometer. Three replicates were used for each variant.

B1: L27V: 9B8 opt+K33N variant with L27V, T39T, K43R, Y68D (SEQ ID NO: 89) (protein)
chain: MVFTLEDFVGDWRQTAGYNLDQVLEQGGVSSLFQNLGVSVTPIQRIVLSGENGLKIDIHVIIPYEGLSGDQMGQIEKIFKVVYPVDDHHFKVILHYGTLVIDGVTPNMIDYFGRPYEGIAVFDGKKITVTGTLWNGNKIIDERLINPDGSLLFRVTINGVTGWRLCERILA
HEK293 cells; PBI-3939
  luminescence normalized to 9B8 opt, HEK293: 1.6
HEK293 cells; luminescence, PBI-3939
  Fold over 9B8 opt + K33N, HEK293: 0.8
HEK293 cells; relative specificity for PBI-3939 compared to native coelenterazine
  Fold over Native Coelenterazine, HEK293: 97
[1]
  Km: 13.9 µM
  Vmax: 190,000,000 RLU/0.5 sec
